In patent publication US20110142842A1 (MEDINNOVA, published 2011):

Molecular target: HLA-A*0201 (human, UniProt A*02:01)
Assay: REVEAL MHC binding assay (ProImmune)

**Q.** Which “% Pass/fail control” value does the source give for YLKDGWHMV [Peptide ID 2 YLKDGWHMV (CD5)] here?
**A.** 182 % of pass/fail control

**Q.** With YLMDLSYSM [Peptide ID 21 YLMDLSYSM (CD18)] as the binder, how does the “% Pass/fail control” value read?
**A.** 198 % of pass/fail control

**Q.** How did the “% Pass/fail control” value turn out when SLWRRPFNV [Peptide ID 22 SLWRRPFNV (MPO)] was run?
**A.** 301 % of pass/fail control

**Q.** For RLYENRASL [Peptide ID 23 RLYENRASL (HA-1)], which “% Pass/fail control” value is on record?
**A.** 266 % of pass/fail control

**Q.** For SMLDDLRNV [Peptide ID 24 SMLDDLRNV (CD18)], which “% Pass/fail control” value is on record?
**A.** 251 % of pass/fail control

**Q.** ILFAFVSSV [Peptide ID 25 ILFAFVSSV (FLT3)] was tested. Which “% Pass/fail control” value did it give?
**A.** 221 % of pass/fail control

**Q.** For TLQPPWVSV [Peptide ID 26 TLQPPWVSV (CD64)], which “% Pass/fail control” value is on record?
**A.** 197 % of pass/fail control

**Q.** With LLMSFFILL [Peptide ID 27 LLMSFFILL (CD53)] as the binder, how does the “% Pass/fail control” value read?
**A.** 189 % of pass/fail control

**Q.** LLLPLLLAL [Peptide ID 28 LLLPLLLAL (CD7)] was tested. Which “% Pass/fail control” value did it give?
**A.** 253 % of pass/fail control

**Q.** For LLSGFFFFA [Peptide ID 29 LLSGFFFFA (CD11a)], which “% Pass/fail control” value is on record?
**A.** 210 % of pass/fail control

**Q.** With ALAGVLAIL [Peptide ID 30 ALAGVLAIL (MPO)] as the binder, how does the “% Pass/fail control” value read?
**A.** 210 % of pass/fail control

**Q.** ILLWEIFSL [Peptide ID 3 ILLWEIFSL (FLT3)] was tested. Which “% Pass/fail control” value did it give?
**A.** 199 % of pass/fail control

**Q.** How did the “% Pass/fail control” value turn out when KLFTSVFGV [Peptide ID 31 KLFTSVFGV (TdT)] was run?
**A.** 200 % of pass/fail control

**Q.** How did the “% Pass/fail control” value turn out when SLHSETWEI [Peptide ID 32 SLHSETWEI (CD11a)] was run?
**A.** 179 % of pass/fail control

**Q.** Which “% Pass/fail control” value does the source give for GLLSPQAQV [Peptide ID 33 GLLSPQAQV (FLT3)] here?
**A.** 170 % of pass/fail control

**Q.** How did the “% Pass/fail control” value turn out when VLQELNVTV [Peptide ID 34 VLQELNVTV (PR3)] was run?
**A.** 170 % of pass/fail control

**Q.** With VLIGILLLV [Peptide ID 35 VLIGILLLV (CD18)] as the binder, how does the “% Pass/fail control” value read?
**A.** 117 % of pass/fail control

**Q.** How did the “% Pass/fail control” value turn out when LLLQVSSRV [Peptide ID 36 LLLQVSSRV (CD64)] was run?
**A.** 180 % of pass/fail control

**Q.** Which “% Pass/fail control” value does the source give for DMKDSIWWV [Peptide ID 37 DMKDSIWWV (PU.1)] here?
**A.** 131 % of pass/fail control

**Q.** With HLYGSNASL [Peptide ID 38 HLYGSNASL (CD11a)] as the binder, how does the “% Pass/fail control” value read?
**A.** 135 % of pass/fail control

**Q.** For LLRTGGWKV [Peptide ID 39 LLRTGGWKV (CD19)], which “% Pass/fail control” value is on record?
**A.** 124 % of pass/fail control

**Q.** How did the “% Pass/fail control” value turn out when LMIPAGIYA [Peptide ID 40 LMIPAGIYA (CD20)] was run?
**A.** 142 % of pass/fail control

**Q.** FLYIGIITI [Peptide ID 4 FLYIGIITI (CD53)] was tested. Which “% Pass/fail control” value did it give?
**A.** 136 % of pass/fail control

**Q.** With GLYQGLSTA [Peptide ID 41 GLYQGLSTA (TCR_TV)] as the binder, how does the “% Pass/fail control” value read?
**A.** 107 % of pass/fail control

**Q.** How did the “% Pass/fail control” value turn out when LLIHNNFGV [Peptide ID 42 LLIHNNFGV (CD53)] was run?
**A.** 191 % of pass/fail control

**Q.** Which “% Pass/fail control” value does the source give for RLFEQVMRI [Peptide ID 43 RLFEQVMRI (MPO)] here?
**A.** 192 % of pass/fail control

**Q.** With VLTPAQLNV [Peptide ID 44 VLTPAQLNV (MPO)] as the binder, how does the “% Pass/fail control” value read?
**A.** 175 % of pass/fail control

**Q.** GMGWAAFNL [Peptide ID 45 GMGWAAFNL (CD50)] was tested. Which “% Pass/fail control” value did it give?
**A.** 193 % of pass/fail control

**Q.** With KMAEAYSEI [Peptide ID 46 KMAEAYSEI (TCR_TV)] as the binder, how does the “% Pass/fail control” value read?
**A.** 200 % of pass/fail control

**Q.** How did the “% Pass/fail control” value turn out when LLAEVTLAI [Peptide ID 47 LLAEVTLAI (CD53)] was run?
**A.** 199 % of pass/fail control

**Q.** Which “% Pass/fail control” value does the source give for ILYPINILI [Peptide ID 48 ILYPINILI (CD11a)] here?
**A.** 214 % of pass/fail control

**Q.** VLFHNLPSL [Peptide ID 49 VLFHNLPSL (CD53)] was tested. Which “% Pass/fail control” value did it give?
**A.** 216 % of pass/fail control

**Q.** Which “% Pass/fail control” value does the source give for YLIFCLCSL [Peptide ID 50 YLIFCLCSL (CD19)] here?
**A.** 71.2 % of pass/fail control

**Q.** How did the “% Pass/fail control” value turn out when YLAVGIMFL [Peptide ID 5 YLAVGIMFL (CD64)] was run?
**A.** 155 % of pass/fail control

**Q.** Which “% Pass/fail control” value does the source give for LLLSGAARA [Peptide ID 51 LLLSGAARA (PR3)] here?
**A.** 178 % of pass/fail control

**Q.** Which “% Pass/fail control” value does the source give for YLRPGQAAA [Peptide ID 52 YLRPGQAAA (CD18)] here?
**A.** 125 % of pass/fail control

**Q.** Which “% Pass/fail control” value does the source give for ALARGLPGA [Peptide ID 53 ALARGLPGA (CD7)] here?
**A.** 215 % of pass/fail control

**Q.** How did the “% Pass/fail control” value turn out when EMDEELHYA [Peptide ID 54 EMDEELHYA (CD33)] was run?
**A.** 117 % of pass/fail control

**Q.** With KLMSPKLYV [Peptide ID 55 KLMSPKLYV (CD19)] as the binder, how does the “% Pass/fail control” value read?
**A.** 232 % of pass/fail control

**Q.** With SMSEEVTYA [Peptide ID 56 SMSEEVTYA (CLL-1)] as the binder, how does the “% Pass/fail control” value read?
**A.** 158 % of pass/fail control

**Q.** NLEEDAYWV [Peptide ID 57 NLEEDAYWV (CD11a)] was tested. Which “% Pass/fail control” value did it give?
**A.** 64.9 % of pass/fail control

**Q.** With LLLLLIFIV [Peptide ID 58 LLLLLIFIV (CD11a)] as the binder, how does the “% Pass/fail control” value read?
**A.** 6.4 % of pass/fail control

**Q.** With SICEGTVEV [Peptide ID 59 SICEGTVEV (CD5)] as the binder, how does the “% Pass/fail control” value read?
**A.** 130 % of pass/fail control

**Q.** Which “% Pass/fail control” value does the source give for FIYGVILTA [Peptide ID 60 FIYGVILTA (TCR_TV)] here?
**A.** 149 % of pass/fail control

**Q.** With SLFEGIYTI [Peptide ID 6 SLFEGIYTI (FLT3)] as the binder, how does the “% Pass/fail control” value read?
**A.** 183 % of pass/fail control

**Q.** For ILTALFLRV [Peptide ID 61 ILTALFLRV (TCR_TV)], which “% Pass/fail control” value is on record?
**A.** 159 % of pass/fail control

**Q.** With FMQPLFLVA [Peptide ID 62 FMQPLFLVA (HA-1)] as the binder, how does the “% Pass/fail control” value read?
**A.** 215 % of pass/fail control

**Q.** How did the “% Pass/fail control” value turn out when WLQAQKVQV [Peptide ID 63 WLQAQKVQV (TdT)] was run?
**A.** 190 % of pass/fail control

**Q.** For GLADVAVGA [Peptide ID 64 GLADVAVGA (CD11a)], which “% Pass/fail control” value is on record?
**A.** 206 % of pass/fail control

**Q.** IMSDSNYVV [Peptide ID 65 IMSDSNYVV (FLT3)] was tested. Which “% Pass/fail control” value did it give?
**A.** 220 % of pass/fail control

**Q.** With RLYQFLLDL [Peptide ID 66 RLYQFLLDL (PU.1)] as the binder, how does the “% Pass/fail control” value read?
**A.** 234 % of pass/fail control

**Q.** Which “% Pass/fail control” value does the source give for KLLLALAGV [Peptide ID 67 KLLLALAGV (MPO)] here?
**A.** 216 % of pass/fail control

**Q.** LLIILLAEV [Peptide ID 68 LLIILLAEV (CD53)] was tested. Which “% Pass/fail control” value did it give?
**A.** 99.2 % of pass/fail control

**Q.** For YISRDTCIV [Peptide ID 69 YISRDTCIV (HA-2)], which “% Pass/fail control” value is on record?
**A.** 133 % of pass/fail control

**Q.** FLQDTFPQQ [Peptide ID 70 FLQDTFPQQ (CD127)] was tested. Which “% Pass/fail control” value did it give?
**A.** 49.8 % of pass/fail control

**Q.** Which “% Pass/fail control” value does the source give for FLDCQIHRV [Peptide ID 7 FLDCQIHRV (CD127)] here?
**A.** 224 % of pass/fail control

**Q.** SMEEAKQLV [Peptide ID 71 SMEEAKQLV (MPO)] was tested. Which “% Pass/fail control” value did it give?
**A.** 169 % of pass/fail control

**Q.** How did the “% Pass/fail control” value turn out when TLPQLFLKV [Peptide ID 72 TLPQLFLKV (FLT3)] was run?
**A.** 182 % of pass/fail control

**Q.** For ALASVLLAL [Peptide ID 73 ALASVLLAL (PR3)], which “% Pass/fail control” value is on record?
**A.** 139 % of pass/fail control

**Q.** Which “% Pass/fail control” value does the source give for ELLDVSWLI [Peptide ID 74 ELLDVSWLI (TdT)] here?
**A.** 220 % of pass/fail control

**Q.** LLEGNLVTL [Peptide ID 76 LLEGNLVTL (CD64)] was tested. Which “% Pass/fail control” value did it give?
**A.** 173 % of pass/fail control

**Q.** Which “% Pass/fail control” value does the source give for GLMATPAKL [Peptide ID 77 GLMATPAKL (MPO)] here?
**A.** 218 % of pass/fail control

**Q.** How did the “% Pass/fail control” value turn out when AIWLFIFNV [Peptide ID 80 AIWLFIFNV (CD19)] was run?
**A.** 199 % of pass/fail control

**Q.** How did the “% Pass/fail control” value turn out when LLLTISLLV [Peptide ID 81 LLLTISLLV (CD52)] was run?
**A.** 250 % of pass/fail control

**Q.** LMGTLIAKV [Peptide ID 83 LMGTLIAKV (HA-1)] was tested. Which “% Pass/fail control” value did it give?
**A.** 316 % of pass/fail control

**Q.** Which “% Pass/fail control” value does the source give for FLLGLGLGV [Peptide ID 8 FLLGLGLGV (CD7)] here?
**A.** 202 % of pass/fail control

**Q.** How did the “% Pass/fail control” value turn out when LIQPFMFRL [Peptide ID 84 LIQPFMFRL (MPO)] was run?
**A.** 311 % of pass/fail control

**Q.** How did the “% Pass/fail control” value turn out when LVAPRFLEV [Peptide ID 85 LVAPRFLEV (CD50)] was run?
**A.** 340 % of pass/fail control

**Q.** Which “% Pass/fail control” value does the source give for LLWAGALAM [Peptide ID 86 LLWAGALAM (CD33)] here?
**A.** 321 % of pass/fail control

**Q.** How did the “% Pass/fail control” value turn out when FLLLTISLL [Peptide ID 88 FLLLTISLL (CD52)] was run?
**A.** 302 % of pass/fail control

**Q.** VLLRWEEEL [Peptide ID 89 VLLRWEEEL (CD50)] was tested. Which “% Pass/fail control” value did it give?
**A.** 184 % of pass/fail control

**Q.** For VLLVVLLVV [Peptide ID 90 VLLVVLLVV (CD5)], which “% Pass/fail control” value is on record?
**A.** 71.5 % of pass/fail control

**Q.** With YLALGDQML [Peptide ID 91 YLALGDQML (CD50)] as the binder, how does the “% Pass/fail control” value read?
**A.** 197 % of pass/fail control

**Q.** How did the “% Pass/fail control” value turn out when LLLTNTFGA [Peptide ID 92 LLLTNTFGA (CD11a)] was run?
**A.** 196 % of pass/fail control

**Q.** For YLGYTVTWL [Peptide ID 93 YLGYTVTWL (CD11a)], which “% Pass/fail control” value is on record?
**A.** 239 % of pass/fail control

**Q.** Which “% Pass/fail control” value does the source give for HLLGPWLLL [Peptide ID 94 HLLGPWLLL (CD22)] here?
**A.** 212 % of pass/fail control
